Experimental data from the supplement of paper PMC9170038.

System: K4 kissing-loop RNA reporter
Experiment: apparent KD of K4 kissing-loop reporter; higher = weaker reporter binding
Details: Eterna round: R107
Procedure: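 RNA-MaP round R107: designed RNA switches with theophylline, tryptophan, arginine or FMN aptamers are transcribed on-chip within common flanks. They are titrated with a labelled K4 kissing-loop RNA reporter in RNA-MaP buffer (100 mM Tris pH 7.5, 80 mM KCl, 4 mM MgCl2), without ligand or with the indicated ligand. Median apparent KD per design.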

[1] = input ligand: theophylline 20 uM
[2] = input ligand: tryptophan 2.4 mM
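Note: bound reporter read as fluorescence of individual clusters on recovered sequencing chips by microscopy, with normalized cluster intensities fitted with a binding model.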

| Sequence | apparent KD of K4 kissing-loop reporter (input ligand: FMN 200 uM) [nM] | apparent KD of K4 kissing-loop reporter (input ligand: arginine 13.2 mM) [nM] | apparent KD of K4 kissing-loop reporter (input ligand: none) [nM] | apparent KD of K4 kissing-loop reporter [1] [nM] | apparent KD of K4 kissing-loop reporter [2] [nM] |
| --- | --- | --- | --- | --- | --- |
| AAUUAGCCGUAAGAAUAGUGAUGUUAUUCACGAGGACCGGUACGGCCGCCACUCGAUAUUGGAAUAUUGAAUUUUUUAUUCUAAA [JR_SSTryptoA_Sub009] | 524 | 474 | 552 | 577 | 291 |
| AAUUGGCAGUGAUGUUGUCAAGGACAUACGAAGGAUAUAAGUGAAGUUAGAAGGUCGACCAUCACUUCUUUGCCAUUUGCAUGAC [theeternabot_exclusion_KL_FMN_A_20] | 238 | 214 | 207 | 243 | 193 |
| AAUUUUAAUAAUAAAUAAUAAAUAAAUGAUACCAGUAUUUUUUUUUACCCUUGGCAGCAUAUAUAAGGGCAGUGAUGUUGCCAAA [Same State - Theophylline A] | 145 | 85.2 | 119 | 111 | 131 |
| AAUUUUAAUAAUAAAUAAUAAAUAAAUGAUACCAGUAUUUUUUUUUACCCUUGGCAGCGUAUAUAAGGGCAGUGAUGUUGUCAGA [whbob_SS_Theo_A_w59] | 223 | 144 | 212 | 232 | 164 |
| ACAAGGGAUCCAGAUACCAGCACUCAAGGAGCUAUAUCAGCGAGUGAUGUUCGUUCAUAGUGCCCUUGGCAGCUGUACUUCCUUG [Essoengeis] | 115 | 107 | 123 | 114 | 110 |
| ACACGGGUCUCGGCCGCCACUCUGCCUACCACCAUUAGUGCCAGUGAUGUUGGCAGGUGAGGGCUGAGGACCGGGAGAUCCAUAC [Zaremais] | 140 | 124 | 136 | 122 | 107 |
| ACACGUGUGGCAGGAUAUCGGGCUGUGGAUCGGCUGGUUACUUAUUCUCGACCAGUGAUGUUGGUACGAGAAGGGCUACCCAGAA [Cetebera] | 145 | 124 | 139 | 135 | 116 |
| ACACUAUCGUCAUAGACGGUAGUGACAUCUCAGGAUAUAAGUGAUGUUAGAAGGGAGAAAAUCUUAGGUAUCGAAUAGAUACCAA [FmnA 8 #K4BetweenAptamer #OpenEnded] | 415 | 1100 | 1270 | 821 | 1380 |
| ACACUUUACGUAGGAUAUGCGACGAGUGAUGUUCGUCAGGCGGCUUUAGAUUAAACAAGCCGCCUAGCAGAAGGACGGGCAGUGU [Zaorleon] | 126 | 147 | 188 | 178 | 144 |
| ACACUUUACGUAGGAUAUGCGACGAGUGAUGUUCGUCAGGCGGCUUUAGCUUAAGCAAGCCGCCUAGCAGAAGGACGGGCAGUGU [Bigemalaza] | 139 | 163 | 179 | 185 | 173 |
| ACAGAGGUAACCUGCAGUGAUGUUGCGGAUACCAGCUCACGAAACAGCCCUUGGCAGCCGCCGUCACUAACACGGUGGAUACAGU [theeternabot_exclusion_KL_Theo_A_49] | 257 | 168 | 230 | 178 | 181 |
| ACAGAGUGAUGUUUUGUAAAGAUCUUUGAUACCAGCGCCAGAAAUCGCCCUUGGCAGCAAGCCGUACAUACGUUGAUUGAUCCAC [theeternabot_exclusion_KL_Theo_A_14] | 738 | 694 | 926 | 758 | 577 |
| ACAGAUGCUAGUGAUACCAGACUAGCACUACGUAAUAUGUCAAGUGAUGUUUGACAACUAGUCCCUUGGCAGCGCGAUACGUCUG [Theo B SS t2] | 297 | 353 | 295 | 305 | 261 |
| ACAGUAGUGAUGUCUUUGAUAUUACUACUGCGAGGACCGGUACGGCCGCCACUCGCCCAUUUUUGGGUUGAGAGUGAUGUUCUCA [Skye_SS_TA2] | 594 | 345 | 474 | 482 | 588 |
| ACAGUCCCGCAUGGUGCGAACGAGAGAUGGCGAGGACCGGUACGGCCGCCACUCGAACAAGUGAUGUUUGAUAUCAUUUUUCUAC [theeternabot_sameState_KL_Trp_A_10] | 98.6 | 83.3 | 117 | 90.7 | 85.4 |
| ACAGUCGGCUGUGAUACCAGUCGUAUAACAACAUGUUGCAGUGAUGUUGCGAGAUAGGAUGACCCUUGGCAGCACUCAGUACGAC [Same State Theophylline B GF11] | 324 | 101 | 248 | 328 | 150 |
| ACAUCGGUUGAGAGUGAUGUUCCUUGUGUUCGAGGACCGGUACGGCCGCCACUCGGGUAGAAAAUAACAGAUGUGUUUGAUUUUU [BDazzled - #16 SS Tryptophan A] | 163 | 88.4 | 144 | 308 | 244 |
| ACAUGCCCAGUGAUGUUGGAUAAAUAUGAAGGAGCGUGCGAAAGCACAGGUAGGUCGCAUAAUAGCAUGAGUCACGAAAGUGACA [#18 K4 Arginine A Same State] | 327 | 291 | 356 | 278 | 209 |
| ACAUGUGCCAGUGAUGUUGGCGUACGUGAUACCAGACGAAUAAAAGUCCCUUGGCAGCACAAAUAAGCCAAGAUAGAUGAAUGAU [#03 K4 Theophylline A Exclusion] | 191 | 159 | 203 | 242 | 189 |
| ACAUUUUCAAGUGAUACCAGACAUUUUUUUUUCUUUAUUUAUGCUAAGUGAUGUUUAGCAGUCCCUUGGCAGCACUAUUUAACUA [JR_Nu_SSTheophyB_Sub031] | 121 | 101 | 93.2 | 169 | 115 |
| ACCAUCAAAGAUGGCCAGGACUCCGCUGAUACCAGAGUGAAAACACUCCCUUGGCAGCAGGUGAGUGAUGUUCACAAGUCCUGGA [Omel KL Theo A SS B v5] | 1160 | 693 | 1860 | 981 | 857 |

| Sequence | apparent KD of K4 kissing-loop reporter (input ligand: FMN 200 uM) [nM] | apparent KD of K4 kissing-loop reporter (input ligand: arginine 13.2 mM) [nM] | apparent KD of K4 kissing-loop reporter (input ligand: none) [nM] | apparent KD of K4 kissing-loop reporter [1] [nM] | apparent KD of K4 kissing-loop reporter [2] [nM] |
| --- | --- | --- | --- | --- | --- |
| ACCGGACAAGAGGUGUCAGUGAUGUUGGCGCGAGGACCGGUACGGCCGCCACUCGAGGAAAGCGGUCACGCCCUGGUAGGACUGG [theeternabot_exclusion_KL_Trp_A_22] | 169 | 106 | 144 | 128 | 251 |
| ACCUUAUUUGCCAGUGAUGUUGGACAGGAAGGAGCGGGCAUAAGCCCAGGUAGGUCGCCUGUCAACUUUCUUAUAGCCCAAAGGU [KL-XArg-A18] | 308 | 253 | 396 | 314 | 294 |
| ACGAAGGAUGGAAGGAGCGCUCGUCAGUCCUGCGAGUGAUGUUCGUGGGUAAAUAGUCGCGAGCAGGUAGGUCGCCAUCUUGAGC [Isarteza] | 133 | 104 | 119 | 112 | 108 |
| ACGAUCUUCGGCCUAUGAGUGAUGUUUAUGCGAGGACCGGUACGGCCGCCACUCGGGCGGUUAUUCACUACGCCUCUUCCGUCGA [theeternabot_exclusion_KL_Trp_A_37] | 900 | 435 | 1040 | 517 | 649 |
| ACGCGCGCGAGUGAUGUUCGGAGCGGCUGGCAGGAUAUGGAGCAAUCCAGAAGGGUCGUGGCUGCUGGUAGGAAACUACUGGCAG [#2 Exclusion - FMN A Attempt #3 (HarryS)] | 135 | 239 | 350 | 330 | 299 |
| ACGCGCGCGAGUGAUGUUCGGAGCGGCUGGCAGGAUAUGUAGCAAUGCAGAAGGGUCGUGGCGGCGCGGCCGUAAGGCGGCGCCG [#2 Exclusion - FMN A Attempt #14 (HarryS)] | 173 | 310 | 404 | 535 | 237 |
| ACGUAGUUCUAGGAUACCAGCCAAAUAGCCAGGACGAGAGUCCUGGCUGCCAGUGAUGUUGGCCCUUGGCAGCCUAGAACUACGA [Theo B Ex Mod Omei v10] | 166 | 134 | 138 | 233 | 146 |
| ACGUAGUUCUAGGAUACCAGCCAAAUAGCCAGGACGAGAGUCCUGGCUGCCAGUGAUGUUGGCCCUUGGCAGCCUAGAUCUUCUU [zmodel 1] | 161 | 136 | 144 | 218 | 149 |
| ACGUAGUUCUAGGAUACCAGCCAAGGAGCCCAGGACAAAAGUCCUGGCGCCAGUGAUGUUGGCCCUUGGCAGCCUAGAACUACGA [Omei KL Theo B Exc B v4] | 181 | 157 | 157 | 136 | 151 |
| ACGUCCGGAUUAAUCGUGGGCAUGGUGGAUACCAGUUCUUUAAUGAACCCUUGGCAGCCACAUGAGUGAUGUUCAUGUGCGAUGA [KL-XTheo-A9 #analogue] | 145 | 117 | 141 | 187 | 140 |
| ACGUGCACCAGUGAUGUUGGAAAAUAUGAAGGAGCGGGCGAAAGCCCAGGUAGGUCGCAUAAUAGCACGAGCCACGAAAGUGGCA [#SwitchBubble 20 #K4Early] | 125 | 137 | 184 | 132 | 126 |
| ACUGAGCAUGCGGCCGCCACUUCAGAACGUCGCCCGGAGGGCGACGCCUCCGCAGUGAUGUUGCGGAGGACCGGGCAUGUUCAGA [Omei KL Tryp B Exc A v4] | 90.4 | 78.4 | 99.8 | 77.9 | 85.3 |
| ACUGGAAACAUCACGUAUCCAAAACUGGAUACCAGCUCGGAAACGAGCCCUUGGCAGCCAGAACUUGCAGUGAUGUUGCAAGUAA [Design9] | 386 | 323 | 384 | 392 | 398 |
| AGAAACUUGUAUGUCGGCCCUGCGCGCGAUACCAGCCAAAUGGAUGGCCCUUGGCAGCGCAGCGAGUGAUGUUCGCCCGGCUGAC [Exclusion Theophylline A GF 21] | 77 | 108 | 95.9 | 110 | 65.7 |
| AGAACUGUCUGAGAUACCAGCCAAGGAGUGAUGUUCCGGCUCGACGAAACGUCGAGCAAUGGCCCUUGGCAGCUCAGACAGUUCA [Omei KL Theo B SS A v3] | 387 | 80.9 | 182 | 398 | 242 |
| AGAACUGUCUGAGAUACCAGCCAGGAAGUGAUGUUUCCAGCUCGACGAAAGUCGAGCCAUGGCCCUUGGCAGCUCAGACAGUUCA [Omei KL Theo B SS A v4] | 178 | 147 | 149 | 118 | 166 |
| AGAACUGUCUGAGAUACCAGCCGAGGAGUGAUGUUCCGGCUCGACGAAACGUCGAGCCACGGCCCUUGGCAGCUCAGACAGUUCA [Omei KL Theo B SS A v1] | 1360 | 287 | 647 | 1060 | 455 |
| AGAAGGUCAAAGACCUUCGUGCACACUGAUACCAGUCGCGAAAGCGACCCUUGGCAGCAGGGCAGUGAUGUUGCCAAGUGCACAA [Omei KL Theo A SS A v2] | 252 | 278 | 267 | 136 | 235 |
| AGACCACAAAGUGGUCAGUGUUCGCAGCAGCGAGGACCGGUACGGCCGCCACUCGCGAGUGAUGUUCGCGAGAGCUGCGAACACA [Omei KL Tryp A Exc A v7] | 101 | 83.2 | 81.3 | 83.3 | 109 |
| AGACUACCACACUGUCAAUAGACAGUGAACUAGGAUAUGCUGAUAAGCAGAAGGAGUGAUGUUCCUAAUAAAAGGUAGUCAUAAU [FmnAX 16 #SwitchBubble #StaticStem #K4Early] | 426 | 431 | 415 | 587 | 360 |
| AGACUACCACACUGUCAAUAGACAGUGAACUAGGAUAUGCUGAUAAGCAGAAGGAGUGAUGUUCCUAGGUAGUCAAUAAAAUAAU [FmnAX 13 #SwitchBubble #StaticStem #K4Early] | 349 | 350 | 383 | 447 | 401 |
